Experimental data taken from US20250043302A1, “MUTATED HYDROXYPHENYLPYRUVATE DIOXYGENASE POLYPEPTIDE, AND CODING GENE AND USE THEREOF” (BEIJING DABEINONG BIOTECHNOLOGY CO., LTD., priority 2021, published 2025).

B1: MsHPPDm-F372A-F383W-02: nucleotide sequence encoding Medicago sativa HPPD with F372A+F383W; vector DBN11737 (nucleic acid)
DNA: ATGGCTATTGAAACCGAAACACAAACTCAGACTGGATTTAAACTGGTAGGGTTCAAGAATTTCGTTAGGGCTAATCCCAAGTCTGATCGTTTTAAGGTCAAGAGGTTCCACCACGTGGAGTTCTGGTGCACTGATGCAACCAACACGGCGCGGCGTTTTTCACATGGTCTTGGAATGCCTATTGTTGCAAAATCCGACCTCTCCACGGGGAACCAAACACACGCCTCTTACCTGCTACGGAGTGGTGACTTGAACTTCCTCTTCAGCGCCGCCTACTCACCCTCCATATCGTTGTCTTCACCATCCTCGACCGCAGCAATTCCTACATTTTCTGCGAGCAACTGCTTCTCTTTCTCTGCCAGTCATGGCCTCGCCGTCAGAGCAGTGGCCGTTGAAGTAGAGGATGCTGAACTTGCTTTTACAACTTCAGTGAATAATGGAGCAATACCGAGCAGTCCGCCGGTCATACTTGAGAATCATGTGAAGCTAGCGGAGGTGAGGCTTTATGGGGACGTCGTTTTAAGATATGTCAGCTACAATGATCCAAACCCCAATCAAAATCCAAATTTGTTGTTCCTTCCTGGCTTCGAGCGTGTTAGCGATGAATCTTCAAACTCTTCACTGGATTTTGGAATCAGACGGTTGGATCATGCTGTTGGAAATGTTCCTGAACTCTCGAGCGCTGTGAAATATGTGAAGGACTTCACCGGTTTTCATGAATTTGCTGAGTTTACTGCAGAAGATGTGGGTACATCAGAGAGTGGCTTGAATTCCGTGGTGCTCGCCAACAACGAGGAGACTGTACTCTTACCAATGAATGAGCCAGTCTATGGCACCAAGCGTAAATCTCAAATTGAGACATATTTGGAGCACAATGAAGGAGCTGGACTTCAGCATCTCGCGCTGAAGAGTGAGGACATCTTCCGCACCCTACGGGAGATGAGGAAAAGAAGTGGTGTTGGTGGGTTTGAATTCATGCCATCACCTCCTGTCACCTACTACAGGAACCTGAAGAACAGAGTTGGTGATGTACTTTCGGACGAGCAGATAAAGGAATGTGAAGAGTTGGGGATTTTGGTTGATAGAGATGATCAAGGAACACTCCTGCAGATTGCCACAAAACCAATTGGCGACCGCCCCACTATCTGGATAGAGATCATCCAGAGGGTGGGGTGCATGCTCAAAGACGAGGAAGGGAAGGAGTACCAGAAGGGCGGCTGTGGTGGTTTTGGGAAAGGAAACTTTTCTGAGTTATTCAAATCAATTGAAGAGTATGAGAAGACGCTTGAAACGCGTCGCACTGCTTGA
modifications: MsHPPDm-F372A-F383W-02 Nucleotide Sequence
notes: vector DBN11737
B2: MsHPPDm-F372A-02: nucleotide sequence encoding Medicago sativa HPPD with F372A; vector DBN11735 (nucleic acid)
DNA: ATGGCTATTGAAACCGAAACACAAACTCAGACTGGATTTAAACTGGTAGGGTTCAAGAATTTCGTTAGGGCTAATCCCAAGTCTGATCGTTTTAAGGTCAAGAGGTTCCACCACGTGGAGTTCTGGTGCACTGATGCAACCAACACGGCGCGGCGTTTTTCACATGGTCTTGGAATGCCTATTGTTGCAAAATCCGACCTCTCCACGGGGAACCAAACACACGCCTCTTACCTGCTACGGAGTGGTGACTTGAACTTCCTCTTCAGCGCCGCCTACTCACCCTCCATATCGTTGTCTTCACCATCCTCGACCGCAGCAATTCCTACATTTTCTGCGAGCAACTGCTTCTCTTTCTCTGCCAGTCATGGCCTCGCCGTCAGAGCAGTGGCCGTTGAAGTAGAGGATGCTGAACTTGCTTTTACAACTTCAGTGAATAATGGAGCAATACCGAGCAGTCCGCCGGTCATACTTGAGAATCATGTGAAGCTAGCGGAGGTGAGGCTTTATGGGGACGTCGTTTTAAGATATGTCAGCTACAATGATCCAAACCCCAATCAAAATCCAAATTTGTTGTTCCTTCCTGGCTTCGAGCGTGTTAGCGATGAATCTTCAAACTCTTCACTGGATTTTGGAATCAGACGGTTGGATCATGCTGTTGGAAATGTTCCTGAACTCTCGAGCGCTGTGAAATATGTGAAGGACTTCACCGGTTTTCATGAATTTGCTGAGTTTACTGCAGAAGATGTGGGTACATCAGAGAGTGGCTTGAATTCCGTGGTGCTCGCCAACAACGAGGAGACTGTACTCTTACCAATGAATGAGCCAGTCTATGGCACCAAGCGTAAATCTCAAATTGAGACATATTTGGAGCACAATGAAGGAGCTGGACTTCAGCATCTCGCGCTGAAGAGTGAGGACATCTTCCGCACCCTACGGGAGATGAGGAAAAGAAGTGGTGTTGGTGGGTTTGAATTCATGCCATCACCTCCTGTCACCTACTACAGGAACCTGAAGAACAGAGTTGGTGATGTACTTTCGGACGAGCAGATAAAGGAATGTGAAGAGTTGGGGATTTTGGTTGATAGAGATGATCAAGGAACACTCCTGCAGATTGCCACAAAACCAATTGGCGACCGCCCCACTATCTTCATAGAGATCATCCAGAGGGTGGGGTGCATGCTCAAAGACGAGGAAGGGAAGGAGTACCAGAAGGGCGGCTGTGGTGGTTTTGGGAAAGGAAACTTTTCTGAGTTATTCAAATCAATTGAAGAGTATGAGAAGACGCTTGAAACGCGTCGCACTGCTTGA
modifications: MsHPPDm-F372A-02 Nucleotide Sequence
notes: vector DBN11735

How the values were obtained:
Format in all cases: in vivo
[1] = tested on: Arabidopsis thaliana T1 plants; assay: Topramezone tolerance of transgenic Arabidopsis thaliana T1 plants (spray, bleached leaf area grade, damage score); conditions: 7 DAT, Table 4; for Classification and statistics of the grade of pesticide damage: Grade 0 / Classification and statistics of the grade of pesticide damage: Grade 1 / Classification and statistics of the grade of pesticide damage: Grade 2 / Classification and statistics of the grade of pesticide damage: Grade 3: number of plants; for Scores: pesticide damage score 0-100
Method in brief: (§1)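 Damage graded 0–3 from the proportion of bleached leaf area 7 days after spraying. Plants were glufosinate-selected T1 lines, 18 days after sowing, plus vector and wild-type controls. Rates: mesotrione 52.5–420, isoxaflutole 35–280, topramezone 25–200 g ai/ha, with water (0×).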

[2] = tested on: Arabidopsis thaliana T1 plants; assay: Isoxaflutole tolerance of transgenic Arabidopsis thaliana T1 plants (spray, bleached leaf area grade, damage score); parameters: Scores (pesticide damage): scale not given here; conditions: spray, Arabidopsis thaliana T1 plants; for Classification and statistics of the grade of pesticide damage: Grade 0 (number of plants) / Classification and statistics of the grade of pesticide damage: Grade 1 (number of plants) / Classification and statistics of the grade of pesticide damage: Grade 2 (number of plants) / Classification and statistics of the grade of pesticide damage: Grade 3 (number of plants): 16 plants
Method in brief: as §1

[3] = tested on: Arabidopsis thaliana T1 plants; assay: Mesotrione tolerance of transgenic Arabidopsis thaliana T1 plants (spray, bleached leaf area grade, damage score); parameters: Scores: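 damage score 0-100 computed as Σ(N×S)/(T×M)×100 over grades 0-3 with higher meaning more damage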; conditions: Arabidopsis thaliana T1 plants; for Grade 0 (classification and statistics of the grade of pesticide damage; number of plants) / Grade 1 (classification and statistics of the grade of pesticide damage; number of plants) / Grade 2 (classification and statistics of the grade of pesticide damage; number of plants) / Grade 3 (classification and statistics of the grade of pesticide damage; number of plants): 16 plants
Method in brief: as §1

[4] = isoxaflutole 35 g ai/ha (0.5x field concentration)
[5] = isoxaflutole 70 g ai/ha (1x field concentration)

Row | Molecule | Classification and statistics of the grade of pesticide damage: Grade 0 ([1]; topramezone 25 g ai/ha (1×)) | Classification and statistics of the grade of pesticide damage: Grade 1 ([1]; topramezone 25 g ai/ha (1×)) | Classification and statistics of the grade of pesticide damage: Grade 2 ([1]; topramezone 25 g ai/ha (1×)) | Classification and statistics of the grade of pesticide damage: Grade 3 ([1]; topramezone 25 g ai/ha (1×)) | Classification and statistics of the grade of pesticide damage: Grade 0 ([1]; topramezone 100 g ai/ha (4×)) | Classification and statistics of the grade of pesticide damage: Grade 1 ([1]; topramezone 100 g ai/ha (4×)) | Classification and statistics of the grade of pesticide damage: Grade 2 ([1]; topramezone 100 g ai/ha (4×)) | Classification and statistics of the grade of pesticide damage: Grade 3 ([1]; topramezone 100 g ai/ha (4×)) | Scores ([1]; topramezone 25 g ai/ha (1×)) | Scores ([1]; topramezone 100 g ai/ha (4×)) | Resistance evaluation ([1]; topramezone 25 g ai/ha (1×)) | Resistance evaluation ([1]; topramezone 100 g ai/ha (4×)) | Resistance evaluation [2, 4] | Scores (pesticide damage) [2, 4] | Classification and statistics of the grade of pesticide damage: Grade 0 (number of plants) [2, 4] | Classification and statistics of the grade of pesticide damage: Grade 1 (number of plants) [2, 4] | Classification and statistics of the grade of pesticide damage: Grade 2 (number of plants) [2, 4] | Classification and statistics of the grade of pesticide damage: Grade 3 (number of plants) [2, 4] | Resistance evaluation [2, 5] | Scores (pesticide damage) [2, 5] | further results
1 | B1 | 6 | 9 | 1 | 0 | 0 | 8 | 6 | 2 | 23 | 54 | moderately | poorly | Moderately | 27 | 5 | 9 | 2 | 0 | Moderately | 33 | Classification and statistics of the grade of pesticide damage: Grade 0 (number of plants) [2, 5]: 2; Classification and statistics of the grade of pesticide damage: Grade 1 (number of plants) [2, 5]: 12; Classification and statistics of the grade of pesticide damage: Grade 2 (number of plants) [2, 5]: 2; Classification and statistics of the grade of pesticide damage: Grade 3 (number of plants) [2, 5]: 0; Resistance evaluation ([3]; mesotrione 52.5 g ai/ha): Moderately; Scores ([3]; mesotrione 52.5 g ai/ha): 33; Grade 0 (classification and statistics of the grade of pesticide damage; number of plants) ([3]; mesotrione 52.5 g ai/ha): 3; Grade 1 (classification and statistics of the grade of pesticide damage; number of plants) ([3]; mesotrione 52.5 g ai/ha): 10; Grade 2 (classification and statistics of the grade of pesticide damage; number of plants) ([3]; mesotrione 52.5 g ai/ha): 3; Grade 3 (classification and statistics of the grade of pesticide damage; number of plants) ([3]; mesotrione 52.5 g ai/ha): 0; Resistance evaluation ([3]; mesotrione 105 g ai/ha): Non-resistant; Scores ([3]; mesotrione 105 g ai/ha): 79; Grade 0 (classification and statistics of the grade of pesticide damage; number of plants) ([3]; mesotrione 105 g ai/ha): 0; Grade 1 (classification and statistics of the grade of pesticide damage; number of plants) ([3]; mesotrione 105 g ai/ha): 0; Grade 2 (classification and statistics of the grade of pesticide damage; number of plants) ([3]; mesotrione 105 g ai/ha): 10; Grade 3 (classification and statistics of the grade of pesticide damage; number of plants) ([3]; mesotrione 105 g ai/ha): 6
2 | B2 | 5 | 7 | 4 | 0 | 0 | 4 | 9 | 3 | 31 | 65 | moderately | poorly | Poorly | 54 | 0 | 6 | 10 | 0 | Non-resistant | 100 | Classification and statistics of the grade of pesticide damage: Grade 0 (number of plants) [2, 5]: 0; Classification and statistics of the grade of pesticide damage: Grade 1 (number of plants) [2, 5]: 0; Classification and statistics of the grade of pesticide damage: Grade 2 (number of plants) [2, 5]: 0; Classification and statistics of the grade of pesticide damage: Grade 3 (number of plants) [2, 5]: 16; Resistance evaluation ([3]; mesotrione 52.5 g ai/ha): Poorly resistant; Scores ([3]; mesotrione 52.5 g ai/ha): 52; Grade 0 (classification and statistics of the grade of pesticide damage; number of plants) ([3]; mesotrione 52.5 g ai/ha): 0; Grade 1 (classification and statistics of the grade of pesticide damage; number of plants) ([3]; mesotrione 52.5 g ai/ha): 9; Grade 2 (classification and statistics of the grade of pesticide damage; number of plants) ([3]; mesotrione 52.5 g ai/ha): 5; Grade 3 (classification and statistics of the grade of pesticide damage; number of plants) ([3]; mesotrione 52.5 g ai/ha): 2; Resistance evaluation ([3]; mesotrione 105 g ai/ha): Non-resistant; Scores ([3]; mesotrione 105 g ai/ha): 100; Grade 0 (classification and statistics of the grade of pesticide damage; number of plants) ([3]; mesotrione 105 g ai/ha): 0; Grade 1 (classification and statistics of the grade of pesticide damage; number of plants) ([3]; mesotrione 105 g ai/ha): 0; Grade 2 (classification and statistics of the grade of pesticide damage; number of plants) ([3]; mesotrione 105 g ai/ha): 0; Grade 3 (classification and statistics of the grade of pesticide damage; number of plants) ([3]; mesotrione 105 g ai/ha): 16
